Measured values: patent US20240150440A1 (LUMEN BIOSCIENCE, published 2024)
Residue numbers refer to the chain shown, from its start. Names and notes keep the numbering of the source.

B1: PP1892 R2B-D5_smAKAP-C16S_S3B-C8_H6 (VHH)
chain: QVQLVESGGGLVQPGGSLRLSCAASGYADEINMVHWYRQAPGKGREFVAAIASGGSTFYADSVKGRFTISRDNAKNTVYLQMNSLKPEDTAVYYCAAIPRPSLSYAHDYAYWGQGTQVTVSSTVILEYAHRLSQDILSDALQQWASQVQLVESGGGLVQPGGSLRLSCAASGSIENIERMHWYRQAPGKQRELVAVIDSGGTTRYADSVKGRFTISRDNAKNTVYLQMNSLKPEDTAVYYCAAVWLTNAESTQEYWGQGTQVTVSSHHHHHH
B2: PP1894 S3B-C8_smAKAP-C16S_R2B-D5_H6 (VHH)
chain: QVQLVESGGGLVQPGGSLRLSCAASGSIENIERMHWYRQAPGKQRELVAVIDSGGTTRYADSVKGRFTISRDNAKNTVYLQMNSLKPEDTAVYYCAAVWLTNAESTQEYWGQGTQVTVSSTVILEYAHRLSQDILSDALQQWASQVQLVESGGGLVQPGGSLRLSCAASGYADEINMVHWYRQAPGKGREFVAAIASGGSTFYADSVKGRFTISRDNAKNTVYLQMNSLKPEDTAVYYCAAIPRPSLSYAHDYAYWGQGTQVTVSSHHHHHH
B3: PP1895 S3B-C8_smAKAP-C16S_S3B-C8_H6 (VHH)
chain: QVQLVESGGGLVQPGGSLRLSCAASGSIENIERMHWYRQAPGKQRELVAVIDSGGTTRYADSVKGRFTISRDNAKNTVYLQMNSLKPEDTAVYYCAAVWLTNAESTQEYWGQGTQVTVSSTVILEYAHRLSQDILSDALQQWASQVQLVESGGGLVQPGGSLRLSCAASGSIENIERMHWYRQAPGKQRELVAVIDSGGTTRYADSVKGRFTISRDNAKNTVYLQMNSLKPEDTAVYYCAAVWLTNAESTQEYWGQGTQVTVSSHHHHHH
B4: MBP-5HVZ-R5D-B2-H6 (VHH, not shown: large carriers; small tags and cut ends)
VHH: QVQLVESGGGLVQPGGSLRLSCAASGSIWSIAFMSWYRQAPGKGREWVAAITTGNDEAYADSVKGRFTISRDNAKNTVYLQMNSLKPEDTAVYYCAANTYERTPDGRTFSYWGQGTQVTVSS
B5: MBP-5HVZ-R5C-F3-H6 (VHH, not shown: large carriers; small tags and cut ends)
VHH: QVQLVESGGGLVQPGGSLRLSCAASGTIPSINYTAWYRQAPGKQRELVASLTSGDNRYYTDSVKGRFTISRDNAKNTVYLQMNSLKPEDTAVYYCNAKTVGSSYRDSYNYWGQGTQVTVSS
B6: MBP-5HVZ-R5C-G6-H6 (VHH, not shown: large carriers; small tags and cut ends)
VHH: QVQLVESGGGLVQPGGSLRLSCAASGSIESINAIHWFRQAPGKAREEVAAITENDVDYYADSVKGRFTISRDNAKNTVYLQMNSLKPEDTAVYYCASLSSGYQYVGFRYWGQGTQVTVSS
B7: MBP-5HVZ-R5C-F6-H6 (VHH, not shown: large carriers; small tags and cut ends)
VHH: QVQLVESGGGLVQPGGSLRLSCAASGQTNSILAMHWYRQAPGKQREAVATITSGSNSTYADSVKGRFTISRDNAKNTVYLQMNSLKPEDTAVYYCAARNGKLSPKANQRLYWGQGTQVTVSS
B8: MBP-5HVZ-R5C-F5-H6 (VHH, not shown: large carriers; small tags and cut ends)
VHH: QVQLVESGGGLVQPGGSLRLSCAASGSYFKINSLAWFRQAPGKAREVVAAIHSGDGTNYADSVKGRFTISRDNAKNTVYLQMNSLKPEDTAVYYCAADQAWVRAGTYDYWGQGTQVTVSS
B9: MBP-5HVZ-R5D-A1-H6 (VHH, not shown: large carriers; small tags and cut ends)
VHH: QVQLVESGGGLVQPGGSLRLSCAASGSISSYNAMHWFRQAPGKQREWVAGLTSSGSDGYVDSVKGRFTISRDNAKNTVYLQMNSLKPEDTAVYYCNAFSYHTYSRYDFWGQGTQVTVSS
B10: MBP-5HVZ-R5D-F3-H6 (VHH, not shown: large carriers; small tags and cut ends)
VHH: QVQLVESGGGLVQPGGSLRLSCAASGSQLSINYVHWFRQAPGKQREFVAAITITGSSYYADSVKGRFTISRDNAKNTVYLQMNSLKPEDTAVYYCNTVDRTDNYGYDYWGQGTQVTVSS
B11: MBP-5HVZ-R5E-G2-H6 (VHH, not shown: large carriers; small tags and cut ends)
VHH: QVQLVESGGGLVQPGGSLRLSCAASGTIKSINAMHWFRQAPGKAREFVASIGSNGAKSYSDSVKGRFTISRDNAKNTVYLQMNSLKPEDTAVYYCTALITVAESDDYDYWGQGTQVTVSS
B12: MBP-5HVZ-R5D-E4-H6 (VHH, not shown: large carriers; small tags and cut ends)
VHH: QVQLVESGGGLVQPGGSLRLSCAASGQISSNNGMHWFRQAPGKRREFVATATTGGTTSYADSVKGRFTISRDNAKNTVYLQMNSLKPEDTAVYYCTALLMSRAGEFDYWGQGTQVTVSS
B13: MBP-R5D-D4-H6 (VHH, not shown: large carriers; small tags and cut ends)
VHH: QVQLVESGGGLVQPGGSLRLSCAASGSDFTINAMHWFRQAPGKQREFVATITSTSSTAYRDSVKGRFTISRDNAKNTVYLQMNSLKPEDTAVYYCAAFAVRDADTAGWTARDYWGQGTQVTVSS
B14: MBP-5HVZ-R5D-G1-H6 (VHH, not shown: large carriers; small tags and cut ends)
VHH: QVQLVESGGGLVQPGGSLRLSCAASGSIFGINDVHWFRQAPGKEREFVATITNGLSARYKDSVKGRFTISRDNAKNTVYLQMNSLKPEDTAVYYCAAQVYITTYELYDYWGQGTQVTVSS
B15: MBP-5HVZ-R5D-G6-H6 (VHH, not shown: large carriers; small tags and cut ends)
VHH: QVQLVESGGGLVQPGGSLRLSCAASGRILAANIVHWYRQAPGKNREGVAGITSGGSTYYADSVKGRFTISRDNAKNTVYLQMNSLKPEDTAVYYCAAKPLGSPDDFDYWGQGTQVTVSS
B16: PP915 MBP-5HVZ-S3b-A7-H6 (VHH)
VHH: QVQLVESGGGLVQPGGSLRLSCAASGSIASINAIHWVRQAPGKQREEVAAITSGGSTGYADSVKGRFTISRDNAKNTVYLQMNSLKPEDTAVYYCAAQPGQSYAVWGQGTQVTVSS
notes: Form: Dimer
B17: PP909 MBP-5HVZ-S2b-A7-H6 (VHH)
VHH: QVQLVESGGGLVQPGGSLRLSCAASGSSDSWNALHWFRQAPGKEREFVAGISSAGSGYYADSVKGRFTISRDNAKNTVYLQMNSLKPEDTAVYYCNGYEHTTGYDYWGQGTQVTVSS
notes: Form: Dimer
B18: PP913 MBP-5HVZ-S3a-C5-H6 (VHH)
VHH: QVQLVESGGGLVQPGGSLRLSCAASGSIKNTNAMHWFRQAPGKDREWVAGITSGGNSNYGDSVKGRFTISRDNAKNTVYLQMNSLKPEDTAVYYCAAFGYRYDQDYTYDYWGQGTQVTVSS
notes: Form: Dimer
B19: PP907 MBP-5HVZ-S1b-E11-H6 (VHH)
VHH: QVQLVESGGGLVQPGGSLRLSCAASGSYASIASMHWFRQAPGKEREFVAGVTSGGSTNYGDSVKGRFTISRDNAKNTVYLQMNSLKPEDTAVYYCNALAGANYESQWEEYNYWGQGTQVTVSS
notes: Form: Dimer
B20: PP1145 MBP-5HVZ-PAPA-R2d-A6-H6 (VHH)
VHH: B19 VHH with Y28G, A32G, S33A, E44G, F47W, G50S, V51I, G54A, S56N, N58Y
notes: Form: Dimer
B21: PP914 MBP-5HVZ-S3a-H1-H6 (VHH)
VHH: QVQLVESGGGLVQPGGSLRLSCAASGGIYSPYSMHWFRQAPGKAREWVAGIVGGGGTTYSDSVKGRFTISRDNAKNTVYLQMNSLKPEDTAVYYCNANYQEYDEYDYWGQGTQVTVSS
notes: Form: Dimer
B22: PP908 MBP-5HVZ-S2a-C4-H6 (VHH)
VHH: QVQLVESGGGLVQPGGSLRLSCAASGFSESINATAWFRQAPGKQREGVAGLDGGGSDYYSDSVKGRFTISRDNAKNTVYLQMNSLKPEDTAVYYCAAQLTSSFRGYDFTPSNYDYWGQGTQVTVSS
notes: Form: Dimer
B23: PP911 MBP-5HVZ-S2b-F7-H6 (VHH)
VHH: QVQLVESGGGLVQPGGSLRLSCAASGSTLSNNAMHWFRQAPGKAREFVAAIGSSDSTDYKDSVKGRFTISRDNAKNTVYLQMNSLKPEDTAVYYCTALLDSGPGEYNYWGQGTQVTVSS
notes: Form: Dimer
B24: PP910 MBP-5HVZ-S2b-C10-H6 (VHH)
VHH: QVQLVESGGGLVQPGGSLRLSCAASGSAFSLNYMAWFRQAPGKQREGVAIIGSGGSSDYADSVKGRFTISRDNAKNTVYLQMNSLKPEDTAVYYCAAQPNGSPDDFDYWGQGTQVTVSS
notes: Form: Dimer
B25: PP1146 MBP-5HVZ-PAPA-R2d-D3-H6 (VHH)
VHH: QVQLVESGGGLVQPGGSLRLSCAASGHIFSINNAAWVRQAPGKSREGVATIHSGGGTYYSDSVKGRFTISRDNAKNTVYLQMNSLKPEDTAVYYCNAEVSTGAGSRGRVSDVYWGQGTQVTVSS
notes: Form: Dimer
B26: PP1158 MPB-scTRP-PAPA-R2d-D3-H6 (VHH)
VHH: B25 VHH
notes: Form: Trimer
B27: PP1134 MBP-4B0F-PAPA-R2d-D3-H6 (VHH)
VHH: B25 VHH
notes: Form: Heptamer
B28: PP1181 R2d-D3-PP7-H6 (VHH)
VHH: B25 VHH

biological target: T1, recombinant SARS-CoV-2 RBD with C-terminal AviTag (SARS-CoV-2, UniProt P0DTC2 319-541); experiment: not given

| Binder | Kd | koff | kon |
| --- | --- | --- | --- |
| B1 | 0.33 nM | 0.000411 s⁻¹ | 1.23e+06 M⁻¹ s⁻¹ |
| B2 | 0.44 nM | 0.000599 s⁻¹ | 1.34e+06 M⁻¹ s⁻¹ |
| B3 | 2.06 nM | 0.00761 s⁻¹ | 3.69e+06 M⁻¹ s⁻¹ |

biological target: T1, recombinant SARS-CoV-2 RBD with …; experiment: not given; remark: another data set of the same source

| Binder | Kd | IC50 |
| --- | --- | --- |
| B4 | 1.21 nM | – |
| B5 | 11.3 nM | 11.9 nM |
| B6 | – | 8.7 nM |
| B7 | – | 110 nM |
| B8 | 3.13 nM | 3.9 nM |
| B9 | – | 12.6 nM |

biological target: T1, recombinant SARS-CoV-2 RBD with …; experiment: not given; remark: another data set of the same source

| Binder | IC50 | Kd |
| --- | --- | --- |
| B10 | 29.3 nM | – |
| B11 | – | 3.14 nM |
| B12 | 13.7 nM | 9.34 nM |
| B13 | – | 100 nM |
| B14 | 12.4 nM | – |
| B15 | 3.2 nM | 31.3 nM |

biological target: SARS-COV-2 Wuhan Reference RBD (SARS-CoV-2, UniProt P0DTC2 319-541); experiment: ELISA, RBD coated

| Binder | EC50 |
| --- | --- |
| B16 | 1.05 nM |
| B17 | 0.62 nM |
| B18 | 1.53 nM |
| B19 | 3 nM |
| B20 | 1.33 nM |
| B21 | 3.24 nM |
| B22 | 1.59 nM |
| B23 | 2.36 nM |

biological target: T1, recombinant SARS-CoV-2 RBD with …; experiment: BLI, biotinylated RBD on streptavidin biosensors

| Binder | Kd |
| --- | --- |
| B16 | 2.63 nM |
| B24 | 54 nM |
| B17 | 22.5 nM |
| B18 | 1.42 nM |
| B22 | 219 nM |
| B23 | 44.3 nM |

biological target: T1, recombinant SARS-CoV-2 RBD with …; experiment: ELISA, competition with coated ACE2-Fc for RBD [Cont. 1]

| Binder | IC50 |
| --- | --- |
| B20 | 3.8 nM |
| B25 | 2.1 nM |
| B26 | 43.4 nM |
| B27 | 27.7 nM |
| B28 | 282 nM |

biological target: T1, recombinant SARS-CoV-2 RBD with …; experiment: ELISA, competition with coated ACE2-Fc for RBD [Cont. 7]

| Binder | IC50 |
| --- | --- |
| B24 | 405 nM |
| B17 | 5.9 nM |
| B18 | 2.8 nM |
| B19 | 15.9 nM |
| B21 | 4.3 nM |
| B22 | 13.1 nM |
| B23 | 43.6 nM |
